Experimental data as given in US20100240040A1 (INSTITUT PASTEUR, published 2010).
Where no end group is shown, it is not given here. Bodipy = not defined here

Assays:
[1] = biological target: the molecule itself; assay: circular dichroism and gel filtration (data not shown)
[2] = biological target: NEMO (endogenous, in 70Z/3-C3 cells) (UniProt O88522 1-412, limits assumed); assay: cell-based or functional assay
[3] = biological target: T1, spCC2-LZ (murine); assay: fluorescence anisotropy, 10 µM labelled peptide titrated with spCC2-LZ
T1 construct: also called MOD; minimal oligomerization domain of NEMO
T1 chain: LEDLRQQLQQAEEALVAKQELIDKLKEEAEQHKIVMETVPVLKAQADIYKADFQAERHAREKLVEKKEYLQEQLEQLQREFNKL
From the text: The concentration of spCC2-LZ was determining by amino acid analysis (Vinolo et al; 2006).

Chain of NEMO (endogenous, in 70Z/3-C3 cells) (O88522 whole entry): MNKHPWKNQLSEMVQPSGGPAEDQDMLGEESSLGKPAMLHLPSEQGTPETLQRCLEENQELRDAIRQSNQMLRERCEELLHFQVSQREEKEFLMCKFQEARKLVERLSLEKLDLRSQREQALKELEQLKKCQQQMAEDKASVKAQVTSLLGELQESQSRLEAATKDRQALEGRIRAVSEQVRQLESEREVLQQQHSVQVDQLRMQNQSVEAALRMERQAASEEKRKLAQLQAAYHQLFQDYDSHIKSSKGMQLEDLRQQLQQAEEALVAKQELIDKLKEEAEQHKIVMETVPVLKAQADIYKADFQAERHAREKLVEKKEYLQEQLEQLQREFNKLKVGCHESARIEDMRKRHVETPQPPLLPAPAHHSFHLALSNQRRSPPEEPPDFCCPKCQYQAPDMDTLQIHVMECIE

LKAQADIYKARFQAERHAREK (also called tag-free DR NLM; NLM-DR) [DR NLM]: no binding (tested: up to 100 µM) [1].

B1: BA-DR NLM (peptide)
peptide: C(Bodipy)RQIKIWFQNRRMKWKKLKAQADIYKARFQAERHAREK
modifications: reading uncertain
notes: also called BA-NLM-DR; DR NLM fused to its N-terminus with the antennapedia peptide
For B1, the “IC50 of NF-κB activity (β-galactosidase reporter in 70Z/3-C3 cells after PMA, IL-1 or LPS)” value [2] was 0.9 µM and the Kd [3] was 17 µM.

B2: NLM (peptide)
peptide: LKAQADIYKADFQAERHAREK
notes: also called tag-free NLM; NLM peptide of NEMO
B2: no binding (tested: up to 100 µM) [1].

B3: BR7-DR NLM (peptide)
peptide: C(Bodipy)RRRRRRRLKAQADIYKARFQAERHAREK
modifications: reading uncertain
notes: also called DR NLM fused to the poly R7 peptide
B3 gave a Kd [3] of 21 µM.
